This is an account of results in patent US20090099029.

Sequence of Bovine, dephosphorylated, Myelin Basic Protein (MBP) (P02687 whole entry): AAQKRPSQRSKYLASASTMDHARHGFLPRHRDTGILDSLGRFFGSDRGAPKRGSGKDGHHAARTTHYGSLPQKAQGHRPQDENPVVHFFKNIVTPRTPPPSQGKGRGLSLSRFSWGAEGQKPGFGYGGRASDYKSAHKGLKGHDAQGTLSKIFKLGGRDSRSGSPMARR
Sequence of NTRK1 (chain, as listed by the source): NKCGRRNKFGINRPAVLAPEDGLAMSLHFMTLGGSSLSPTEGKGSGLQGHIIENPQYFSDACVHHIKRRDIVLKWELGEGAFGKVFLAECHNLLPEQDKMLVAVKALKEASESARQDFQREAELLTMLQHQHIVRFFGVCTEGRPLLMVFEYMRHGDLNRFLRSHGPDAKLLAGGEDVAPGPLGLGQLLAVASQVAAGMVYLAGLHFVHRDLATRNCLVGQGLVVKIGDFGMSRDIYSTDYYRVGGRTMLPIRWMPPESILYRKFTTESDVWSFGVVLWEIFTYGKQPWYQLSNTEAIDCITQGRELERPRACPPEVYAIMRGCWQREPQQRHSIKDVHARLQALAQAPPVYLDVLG
Sequence of FYN (chain, as listed by the source): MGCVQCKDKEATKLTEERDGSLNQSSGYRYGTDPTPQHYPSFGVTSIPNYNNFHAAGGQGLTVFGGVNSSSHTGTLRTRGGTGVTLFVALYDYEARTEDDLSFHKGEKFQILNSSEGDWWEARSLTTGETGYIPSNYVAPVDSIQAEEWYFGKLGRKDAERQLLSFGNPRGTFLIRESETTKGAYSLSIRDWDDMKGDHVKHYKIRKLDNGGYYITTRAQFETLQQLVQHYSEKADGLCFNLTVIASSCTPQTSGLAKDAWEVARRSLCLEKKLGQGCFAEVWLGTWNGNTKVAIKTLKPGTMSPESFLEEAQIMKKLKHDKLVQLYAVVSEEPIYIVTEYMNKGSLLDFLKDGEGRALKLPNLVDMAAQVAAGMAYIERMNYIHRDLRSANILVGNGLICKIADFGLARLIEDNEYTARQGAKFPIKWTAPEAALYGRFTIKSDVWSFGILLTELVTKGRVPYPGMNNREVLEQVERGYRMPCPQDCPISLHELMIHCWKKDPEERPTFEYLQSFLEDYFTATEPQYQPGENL
Sequence of CLK1 (chain, as listed by the source): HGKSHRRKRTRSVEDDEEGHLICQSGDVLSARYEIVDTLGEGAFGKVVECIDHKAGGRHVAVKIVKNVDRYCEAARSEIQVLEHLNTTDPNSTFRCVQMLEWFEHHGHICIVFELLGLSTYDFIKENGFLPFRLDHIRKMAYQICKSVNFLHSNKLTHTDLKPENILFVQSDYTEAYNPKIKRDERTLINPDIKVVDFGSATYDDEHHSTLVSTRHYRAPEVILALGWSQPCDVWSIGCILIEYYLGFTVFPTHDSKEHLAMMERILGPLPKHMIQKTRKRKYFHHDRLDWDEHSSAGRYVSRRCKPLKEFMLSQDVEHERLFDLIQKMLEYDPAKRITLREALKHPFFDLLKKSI
Sequence of BLK (chain, as listed by the source): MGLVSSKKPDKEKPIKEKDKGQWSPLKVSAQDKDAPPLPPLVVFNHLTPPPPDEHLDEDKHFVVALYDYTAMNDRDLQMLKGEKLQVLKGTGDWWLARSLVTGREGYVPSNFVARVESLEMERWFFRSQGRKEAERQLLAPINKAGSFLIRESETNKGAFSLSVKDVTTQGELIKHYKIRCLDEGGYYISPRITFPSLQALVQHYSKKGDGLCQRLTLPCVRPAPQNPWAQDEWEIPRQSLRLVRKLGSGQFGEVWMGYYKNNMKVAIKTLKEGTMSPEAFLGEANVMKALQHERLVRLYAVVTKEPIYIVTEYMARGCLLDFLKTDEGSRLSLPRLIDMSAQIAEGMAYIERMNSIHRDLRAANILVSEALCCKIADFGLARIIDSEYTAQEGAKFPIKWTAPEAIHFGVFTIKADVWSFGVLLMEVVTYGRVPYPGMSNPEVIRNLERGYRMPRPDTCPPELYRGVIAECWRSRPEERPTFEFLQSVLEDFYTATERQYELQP
Sequence of NEK7 (chain, as listed by the source): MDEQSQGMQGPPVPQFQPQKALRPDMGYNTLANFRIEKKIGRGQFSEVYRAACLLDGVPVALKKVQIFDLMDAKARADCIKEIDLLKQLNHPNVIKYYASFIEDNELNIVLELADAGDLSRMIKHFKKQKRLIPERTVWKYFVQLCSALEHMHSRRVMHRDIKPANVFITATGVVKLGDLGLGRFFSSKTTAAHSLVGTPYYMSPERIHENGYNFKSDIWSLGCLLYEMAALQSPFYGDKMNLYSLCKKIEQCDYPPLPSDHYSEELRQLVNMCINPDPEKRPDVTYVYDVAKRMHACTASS
Sequence of MAP4K5(KHS1) (chain, as listed by the source): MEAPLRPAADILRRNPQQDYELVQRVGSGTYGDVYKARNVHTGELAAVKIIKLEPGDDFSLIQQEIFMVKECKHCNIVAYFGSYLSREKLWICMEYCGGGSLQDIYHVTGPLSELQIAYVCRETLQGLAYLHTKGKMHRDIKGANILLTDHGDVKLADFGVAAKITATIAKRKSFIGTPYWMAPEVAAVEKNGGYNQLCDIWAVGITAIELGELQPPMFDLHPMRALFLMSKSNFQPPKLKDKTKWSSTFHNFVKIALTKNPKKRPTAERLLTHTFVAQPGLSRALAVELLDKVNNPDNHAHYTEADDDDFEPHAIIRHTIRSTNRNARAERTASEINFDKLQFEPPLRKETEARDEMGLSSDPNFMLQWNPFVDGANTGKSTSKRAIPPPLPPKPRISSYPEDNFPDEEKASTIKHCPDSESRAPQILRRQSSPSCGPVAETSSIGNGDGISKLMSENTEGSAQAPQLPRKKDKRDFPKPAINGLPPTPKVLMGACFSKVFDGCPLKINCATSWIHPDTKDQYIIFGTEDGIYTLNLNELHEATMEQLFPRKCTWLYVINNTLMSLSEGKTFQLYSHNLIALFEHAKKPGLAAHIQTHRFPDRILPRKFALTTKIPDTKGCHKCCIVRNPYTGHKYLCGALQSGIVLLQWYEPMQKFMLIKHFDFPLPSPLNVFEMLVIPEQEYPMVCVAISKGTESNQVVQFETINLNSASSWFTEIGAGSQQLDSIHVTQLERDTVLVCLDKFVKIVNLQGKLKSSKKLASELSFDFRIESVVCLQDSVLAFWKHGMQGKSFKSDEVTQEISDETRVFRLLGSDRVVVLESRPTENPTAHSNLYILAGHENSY
Sequence of PIM1 (chain, as listed by the source): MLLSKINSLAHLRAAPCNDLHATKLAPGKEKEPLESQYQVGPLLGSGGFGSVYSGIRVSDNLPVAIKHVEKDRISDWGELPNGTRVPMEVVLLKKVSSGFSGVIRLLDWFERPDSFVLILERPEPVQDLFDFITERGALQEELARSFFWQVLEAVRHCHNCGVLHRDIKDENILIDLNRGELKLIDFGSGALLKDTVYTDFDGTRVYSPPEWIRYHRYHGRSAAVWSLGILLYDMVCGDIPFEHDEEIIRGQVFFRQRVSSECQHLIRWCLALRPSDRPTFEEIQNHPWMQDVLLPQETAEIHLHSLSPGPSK
Sequence of NTRK2 (chain, as listed by the source): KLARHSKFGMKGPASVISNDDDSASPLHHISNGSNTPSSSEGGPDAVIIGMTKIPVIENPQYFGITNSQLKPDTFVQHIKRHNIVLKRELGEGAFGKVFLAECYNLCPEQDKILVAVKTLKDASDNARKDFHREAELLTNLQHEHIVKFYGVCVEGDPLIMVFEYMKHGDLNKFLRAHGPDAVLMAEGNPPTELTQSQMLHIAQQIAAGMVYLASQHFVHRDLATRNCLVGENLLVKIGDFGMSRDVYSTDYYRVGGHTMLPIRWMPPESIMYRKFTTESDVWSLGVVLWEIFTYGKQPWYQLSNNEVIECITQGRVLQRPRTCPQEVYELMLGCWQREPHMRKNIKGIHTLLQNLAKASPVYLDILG
Sequence of CLK4 (chain, as listed by the source): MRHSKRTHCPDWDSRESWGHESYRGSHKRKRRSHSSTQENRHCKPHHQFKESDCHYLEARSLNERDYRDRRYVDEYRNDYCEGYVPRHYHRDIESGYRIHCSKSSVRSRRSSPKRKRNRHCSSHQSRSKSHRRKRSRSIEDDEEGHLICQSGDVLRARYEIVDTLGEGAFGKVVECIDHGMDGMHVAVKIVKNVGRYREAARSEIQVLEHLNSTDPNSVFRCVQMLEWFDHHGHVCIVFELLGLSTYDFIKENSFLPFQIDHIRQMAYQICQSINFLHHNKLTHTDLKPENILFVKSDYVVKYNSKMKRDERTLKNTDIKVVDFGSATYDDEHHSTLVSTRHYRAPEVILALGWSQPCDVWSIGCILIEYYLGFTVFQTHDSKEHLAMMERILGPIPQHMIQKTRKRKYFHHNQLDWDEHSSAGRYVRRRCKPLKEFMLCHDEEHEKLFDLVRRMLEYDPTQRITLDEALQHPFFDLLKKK
Sequence of YES1 (chain, as listed by the source): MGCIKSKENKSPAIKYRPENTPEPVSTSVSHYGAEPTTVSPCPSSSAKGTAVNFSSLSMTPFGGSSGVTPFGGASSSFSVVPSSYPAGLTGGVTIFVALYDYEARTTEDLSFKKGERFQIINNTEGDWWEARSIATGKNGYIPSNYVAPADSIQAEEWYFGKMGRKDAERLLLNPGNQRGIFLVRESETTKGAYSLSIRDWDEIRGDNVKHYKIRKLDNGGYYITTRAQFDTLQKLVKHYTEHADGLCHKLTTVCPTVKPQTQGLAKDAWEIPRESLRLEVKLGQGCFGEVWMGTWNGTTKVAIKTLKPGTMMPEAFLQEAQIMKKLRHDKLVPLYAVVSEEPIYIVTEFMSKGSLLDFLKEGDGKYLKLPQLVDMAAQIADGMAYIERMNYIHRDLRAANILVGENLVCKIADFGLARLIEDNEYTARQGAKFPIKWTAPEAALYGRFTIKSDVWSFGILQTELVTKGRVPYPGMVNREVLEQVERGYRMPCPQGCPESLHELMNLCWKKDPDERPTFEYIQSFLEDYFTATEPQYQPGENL

The data set has as its target Bovine, dephosphorylated, Myelin Basic Protein (MBP) (UniProt P02687).
Consider MLCK, for which the “MBP Kinase Activity” value is recorded as “Negative”.

As for CLK4, the “MBP Kinase Activity” value is recorded as “Negative”.

On to CDK1/cyclin B, for which the “MBP Kinase Activity” value is given as “Strong”.

For NTRK1, the “MBP Kinase Activity” value is reported as “Strong”.

For STK25(YSK1), the “MBP Kinase Activity” value is “Strong”.

On to PKN1(PRK1), for which the “MBP Kinase Activity” value is given as “Strong”.

For the substance PIM1, the “MBP Kinase Activity” value is on record as “Strong”.

Take FGR: the “MBP Kinase Activity” value is listed as “Weak”.

As to NEK6, the “MBP Kinase Activity” value was “Negative”.

On to CSNK1G1(CK1gamma1), for which the “MBP Kinase Activity” value was “Negative”.

EGFR: the “MBP Kinase Activity” value is “Negative”.

On to MAP4K5(KHS1), for which the “MBP Kinase Activity” value is “Negative”.

For the substance AKT1, the “MBP Kinase Activity” value is given as “Strong”.

With STK24(MST3), the “MBP Kinase Activity” value is reported as “Weak”.

In the case of FYN, the “MBP Kinase Activity” value was “Strong”.

Consider PRKCD, for which the “MBP Kinase Activity” value is on record as “Strong”.

Turning to YES1, the “MBP Kinase Activity” value is “Weak”.

Turning to PRKCG, the “MBP Kinase Activity” value is given as “Strong”.

Regarding NTRK2, the “MBP Kinase Activity” value was “Strong”.

On to PRKCB1, for which the “MBP Kinase Activity” value is “Strong”.

As for SGKL(SGK3), the “MBP Kinase Activity” value is recorded as “Weak”.

Regarding NEK7, the “MBP Kinase Activity” value is “Negative”.

As for EPHA7, the “MBP Kinase Activity” value is “Weak”.

Turning to CSNK1G2, the “MBP Kinase Activity” value is “Negative”.

As for SGK, the “MBP Kinase Activity” value is “Strong”.

Take ADRBK2(GRK3): the “MBP Kinase Activity” value is “Negative”.

Turning to PIM2, the “MBP Kinase Activity” value is “Weak”.

On to CSNK1G3, for which the “MBP Kinase Activity” value was “Weak”.

In the case of CLK3, the “MBP Kinase Activity” value is reported as “Strong”.

Consider WEE1, for which the “MBP Kinase Activity” value is “Negative”.

On to BLK, for which the “MBP Kinase Activity” value is “Weak”.

In the case of NTRK3, the “MBP Kinase Activity” value is recorded as “Strong”.

On to MST4, for which the “MBP Kinase Activity” value is recorded as “Negative”.

As to CLK1, the “MBP Kinase Activity” value is given as “Strong”.

Consider PHKG1, for which the “MBP Kinase Activity” value was “Negative”.
